The source of these data is PMC9301129.

Common to all, as to settings: glycan lost; control: UNC93B1(WT)
Data set [1] is described as follows: streptavidin pull-down, anti-myc blot, KO iBMDM.
Data set [2] in a line: blot of TLR9 in isolated phagosomes.
Data set [3] in a line: confocal microscopy, TLR9-GFP with CD63-cherry, KO BMDC.
Data set [4] in a line: cycloheximide chase, anti-GFP blot, UNC93B1 KO iBMDM.
Data set [5] can be described thus: TLR9 co-IP after CpG DNA, anti-MyD88 blot.
Data set [6] can be described thus: cycloheximide chase, anti-myc blot, full-length and cleaved TLR9.
Data set [7] can be described thus: confocal microscopy, colocalisation with CD63, KO BMDC.

B1: UNC93B1: N272Q (protein)
parent chain: MEVEPPLYPVAGAAGPQGDEDRHGVPDGPEAPLDELVGAYPNYNEEEEERRYYRRKRLGVVKNVLAASTGVTLTYGVYLGLLQMQLILHYDETYREVKYGNMGLPDIDSKMLMGINVTPIAALLYTPVLIRFFGTKWMMFLAVGIYALFVSTNYWERYYTLVPSAVALGMAIVPLWASMGNYITRMSQKYYEYSHYKEQDEQGPQQRPPRGSHAPYLLVFQAIFYSFFHLSFACAQLPMIYFLNNYLYDLNHTLINVQSCGTKSQGILNGFNKTVLRTLPRSKNLIVVESVLMAVAFLAMLMVLGLCGAAYRPTEEIDLRSVGWGNIFQLPFKHVRDFRLRHLVPFFIYSGFEVLFACTGFALGYGVCSMGLERLAYLLIAYSLGASASSVLGLLGLWLPRSVPLVAGAGLHLLLTLSLFFWAPAPRVLQHSWIFYFVAALWGVGSALNKTGLSTLLGILYEDKERQDFIFTIYHWWQAVAIFVVYLGSSLPMKAKLAVLLVTLVAAAASYLWMEQKLQQGLVPRQPRIPKPQHKVRGYRYLEEDNSDESDMEGEQGQGDCAEDEAPQAGPLGAEPAGPCRKPCPYEQALGGDGPEEQ
For B1, the “other: CpG DNA binding by client TLR9” value in data set [1] is given as “no change”. Besides, the “other: TLR9 trafficking to phagosomes” value in data set [2] is on record as “no change”. The “other: endosomal localisation of client TLR9” value in data set [3] was “no change”. In addition, the degradation_or_half_life entry in data set [4] was “no change”. Further, the “other: MyD88 recruitment to TLR9” value in data set [5] is recorded as “decreases”. In data set [6], the “other: stability and processing of client TLR9” value is “no change”. Besides, the localisation_or_trafficking result in data set [7] was “no change”.

B2: UNC93B1: N251Q (protein)
parent chain: MEVEPPLYPVAGAAGPQGDEDRHGVPDGPEAPLDELVGAYPNYNEEEEERRYYRRKRLGVVKNVLAASTGVTLTYGVYLGLLQMQLILHYDETYREVKYGNMGLPDIDSKMLMGINVTPIAALLYTPVLIRFFGTKWMMFLAVGIYALFVSTNYWERYYTLVPSAVALGMAIVPLWASMGNYITRMSQKYYEYSHYKEQDEQGPQQRPPRGSHAPYLLVFQAIFYSFFHLSFACAQLPMIYFLNNYLYDLNHTLINVQSCGTKSQGILNGFNKTVLRTLPRSKNLIVVESVLMAVAFLAMLMVLGLCGAAYRPTEEIDLRSVGWGNIFQLPFKHVRDFRLRHLVPFFIYSGFEVLFACTGFALGYGVCSMGLERLAYLLIAYSLGASASSVLGLLGLWLPRSVPLVAGAGLHLLLTLSLFFWAPAPRVLQHSWIFYFVAALWGVGSALNKTGLSTLLGILYEDKERQDFIFTIYHWWQAVAIFVVYLGSSLPMKAKLAVLLVTLVAAAASYLWMEQKLQQGLVPRQPRIPKPQHKVRGYRYLEEDNSDESDMEGEQGQGDCAEDEAPQAGPLGAEPAGPCRKPCPYEQALGGDGPEEQ
Take B2: in data set [1], the “other: CpG DNA binding by client TLR9” value is reported as “no change”. Also, the “other: endosomal localisation of client TLR9” value in data set [3] is “no change”. Besides, the degradation_or_half_life result in data set [4] is “no change”. In addition, in data set [5], the “other: MyD88 recruitment to TLR9” value was “no change”. Besides, the “other: stability and processing of client TLR9” value in data set [6] is reported as “no change”. In addition, the localisation_or_trafficking entry in data set [7] was “no change”.

B3: UNC93B1: N251Q/N272Q (protein)
parent chain: MEVEPPLYPVAGAAGPQGDEDRHGVPDGPEAPLDELVGAYPNYNEEEEERRYYRRKRLGVVKNVLAASTGVTLTYGVYLGLLQMQLILHYDETYREVKYGNMGLPDIDSKMLMGINVTPIAALLYTPVLIRFFGTKWMMFLAVGIYALFVSTNYWERYYTLVPSAVALGMAIVPLWASMGNYITRMSQKYYEYSHYKEQDEQGPQQRPPRGSHAPYLLVFQAIFYSFFHLSFACAQLPMIYFLNNYLYDLNHTLINVQSCGTKSQGILNGFNKTVLRTLPRSKNLIVVESVLMAVAFLAMLMVLGLCGAAYRPTEEIDLRSVGWGNIFQLPFKHVRDFRLRHLVPFFIYSGFEVLFACTGFALGYGVCSMGLERLAYLLIAYSLGASASSVLGLLGLWLPRSVPLVAGAGLHLLLTLSLFFWAPAPRVLQHSWIFYFVAALWGVGSALNKTGLSTLLGILYEDKERQDFIFTIYHWWQAVAIFVVYLGSSLPMKAKLAVLLVTLVAAAASYLWMEQKLQQGLVPRQPRIPKPQHKVRGYRYLEEDNSDESDMEGEQGQGDCAEDEAPQAGPLGAEPAGPCRKPCPYEQALGGDGPEEQ
As for B3, the “other: MyD88 recruitment to TLR9” value in data set [5] is recorded as “decreases”.
